Experimental data reported in PMC6692047, “Ddc2^ATRIP promotes Mec1^ATR activation at RPA-ssDNA tracts” (PLoS Genetics, 2019).

Molecular target: T1, Replication protein A (RPA), consisting of Rfa1, Rfa2 and Rfa3 (budding yeast, UniProt P22336 1-621; P26754 1-273; P26755 1-122)
T1 construct: Rfa1, subunit of budding yeast RPA; Rfa2, subunit of budding yeast RPA; Rfa3, subunit of budding yeast RPA; also called budding yeast RPA protein; source: purified as described [83]; copies: + +
Experiment: pull-down; streptavidin beads coated with biotinylated oligonucleotide bio-oligo(dN)80 (5 pmol), incubated with RPA (1 pmol) for 30 min, then with Mec1-Ddc2, Mec1-Ddc2-S4, MBP, MBP-Ddc2 or MBP-Ddc2-S4 (0.5 pmol) for 30 min; buffer B (20 mM Tris-HCl pH 7.5, 100 mM NaCl, 0.01% NP-40, 10% glycerol, 100 μg/ml BSA), 30°C; immunoblot of captured proteins
Conditions: both partners purified

T1 sequence (P22336 whole entry, chain 1 of 3): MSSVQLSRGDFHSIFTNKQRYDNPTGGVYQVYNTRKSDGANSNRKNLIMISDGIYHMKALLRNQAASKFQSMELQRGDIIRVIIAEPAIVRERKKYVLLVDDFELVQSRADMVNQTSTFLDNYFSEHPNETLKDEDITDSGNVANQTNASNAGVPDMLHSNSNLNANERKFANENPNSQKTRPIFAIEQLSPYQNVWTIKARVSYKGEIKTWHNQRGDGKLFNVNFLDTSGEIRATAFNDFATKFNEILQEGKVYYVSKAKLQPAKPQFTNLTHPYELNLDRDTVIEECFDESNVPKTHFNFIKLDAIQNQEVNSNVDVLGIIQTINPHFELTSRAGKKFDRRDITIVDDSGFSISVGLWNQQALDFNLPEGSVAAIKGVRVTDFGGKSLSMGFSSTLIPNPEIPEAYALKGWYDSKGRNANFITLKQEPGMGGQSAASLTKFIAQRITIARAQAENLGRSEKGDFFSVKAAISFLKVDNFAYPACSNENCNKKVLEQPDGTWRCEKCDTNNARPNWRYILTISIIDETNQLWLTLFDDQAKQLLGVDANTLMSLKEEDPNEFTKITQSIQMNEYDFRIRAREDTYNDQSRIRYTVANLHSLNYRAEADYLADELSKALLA
T1 sequence (P26754 whole entry, chain 2 of 3): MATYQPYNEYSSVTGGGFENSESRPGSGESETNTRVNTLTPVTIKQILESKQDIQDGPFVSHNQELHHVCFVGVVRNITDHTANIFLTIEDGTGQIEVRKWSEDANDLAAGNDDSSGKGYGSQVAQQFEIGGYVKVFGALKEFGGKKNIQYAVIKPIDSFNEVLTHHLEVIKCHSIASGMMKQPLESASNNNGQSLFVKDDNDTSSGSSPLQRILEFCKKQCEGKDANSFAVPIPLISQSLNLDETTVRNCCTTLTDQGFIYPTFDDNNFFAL
T1 sequence (P26755 whole entry, chain 3 of 3): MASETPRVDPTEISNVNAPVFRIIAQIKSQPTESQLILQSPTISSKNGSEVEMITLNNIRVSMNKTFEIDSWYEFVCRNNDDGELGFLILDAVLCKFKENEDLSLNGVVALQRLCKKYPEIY

| binding result | Binder |
| --- | --- |
| binds | MBP-Ddc2 (natural protein, budding yeast, UniProt Q04377 1-747, looked up, Ddc2 (ATRIP homolog), budding yeast; also called MBP-fused Ddc2; pMAL-Ddc2; source: E. coli Rosetta, purified (amylose resin)) MRRETVGEFSSDDDDDILLELGTRPPRFTQIPPSSAALQTQIPTTLEVTTTTLNNKQSKNDNQLVNQLNKAQGEASMLRDKINFLNIEREKEKNIQAVKVNELQVKHLQELAKLKQELQKLEDEKKFLQMEARGKSKREVITNVKPPSTTLSTNTNTITPDSSSVAIEAKPQSPQSKKRKISDNLLKKNMVPLNPNRIIPDETSLFLESILLHQIIGADLSTIEILNRLKLDYITEFKFKNFVIAKGAPIGKSIVSLLLRCKKTLTLDRFIDTLLEDIAVLIKEISVHPNESKLAVPFLVALMYQIVQFRPSATHNLALKDCFLFICDLIRIYHHVLKVPIHESNMNLHVEPQIFQYELIDYLIISYSFDLLEGILRVLQSHPKQTYMEFFDENILKSFEFVYKLALTISYKPMVNVIFSAVEVVNIITSIILNMDNSSDLKSLISGSWWRDCITRLYALLEKEIKSGDVYNENVDTTTLHMSKYHDFFGLIRNIGDNELGGLISKLIYTDRLQSVPRVISKEDIGMDSDKFTAPIIGYKMEKWLLKLKDEVLNIFENLLMIYGDDATIVNGEMLIHSSKFLSREQALMIERYVGQDSPNLDLRCHLIEHTLTIIYRLWKDHFKQLREEQIKQVESQLIMSLWRFLVCQTETVTANEREMRDHRHLVDSLHDLTIKDQASYYEDAFEDLPEYIEEELKMQLNKRTGRIMQVKYDEKFQEMARTILESKSFDLTTLEEADSLYISMGL |
| binds | MBP-Ddc2-S4 (natural protein, budding yeast, UniProt Q04377 1-747, looked up, Ddc2 (ATRIP homolog), budding yeast, with the two ddc2-S4 substitutions; also called MBP-fused Ddc2-S4; pMAL-Ddc2-S4; source: E. coli Rosetta, purified (amylose resin)) MRRETVGEFSSDDDDDILLELGTRPPRFTQIPPSSAALQTQIPTTLEVTTTTLNNKQSKNDNQLVNQLNKAQGEASMLRDKINFLNIEREKEKNIQAVKVNELQVKHLQELAKLKQELQKLEDEKKFLQMEARGKSKREVITNVKPPSTTLSTNTNTITPDSSSVAIEAKPQSPQSKKRKISDNLLKKNMVPLNPNRIIPDETSLFLESILLHQIIGADLSTIEILNRLKLDYITEFKFKNFVIAKGAPIGKSIVSLLLRCKETLTLDRFIDTLLEDIAVLIKEISVHPNESKLAVPFLVALMYQIVQFRPSATHNLALKDCFLFICDLIRIYHHVLKVPIHESNMNLHVEPQIFQYELIDYLIISYSFDLLEGILRVLQSYPKQTYMEFFDENILKSFEFVYKLALTISYKPMVNVIFSAVEVVNIITSIILNMDNSSDLKSLISGSWWRDCITRLYALLEKEIKSGDVYNENVDTTTLHMSKYHDFFGLIRNIGDNELGGLISKLIYTDRLQSVPRVISKEDIGMDSDKFTAPIIGYKMEKWLLKLKDEVLNIFENLLMIYGDDATIVNGEMLIHSSKFLSREQALMIERYVGQDSPNLDLRCHLIEHTLTIIYRLWKDHFKQLREEQIKQVESQLIMSLWRFLVCQTETVTANEREMRDHRHLVDSLHDLTIKDQASYYEDAFEDLPEYIEEELKMQLNKRTGRIMQVKYDEKFQEMARTILESKSFDLTTLEEADSLYISMGL |
